In patent publication US20100166734A1 (published 2010):
Residue numbers refer to the chain shown, from its start.

B1: 1D2 (VHH)
VHH: EVQLVESGGGLVQPGGSLRLSCAASGFTLDYYAIGWFRRAPGKEREGVSCTSSSDGSTYYADSVKGRFTISRDNAKNTVYLQMNSLKPEDTAVYYCATTFGDACTVVAGIPDQYDFGSWGQGTQVTVSS
notes: Carries myc and His tags
B2: 1E7 (VHH)
VHH: EVQLVESGGGLVQAGGSLRLSCAASGRTFSNYVMGWFRQAPGKEREFVAAISWSGVTTYHYSADSVKGRFTTSRDNDRNTAHLQMNSLKPEDTAVYYCAARGRTGSDPRKGDDYDYWGQGTQVTVSS
notes: Carries a myc tag (detected with anti-myc)
B3: 4B11 (VHH)
VHH: EVQLVESGGGLVQPGGSLRLSCAASGFTLDYYAIGWFRQAPGKEREGVSCISSSDMSDGITYYADSVKGRFTSSRDNVKNTVYLQMNSLKPEDTAVYYCATTFGDACTVVAGIPDQADFDSWGQGTQVTVSS
notes: Carries myc and His tags
B4: 4B7 (VHH)
VHH: EVQLVESGGGLVQAGGSLRLSCAASGFTFDDYAIGWFRQAPGKEREGVSCISSRDGITYYADSVKGRFTISSDNAKNTVYLQMNSLKPEDTAVYYCAADLVGSFPCPVAAYDYWGQGTQVTVSS
notes: Carries myc and His tags
B5: 1D7 (VHH)
VHH: EVQLVESGGGLVQSGGSLRLSCAASGRAFNYYAMGWFRQAPGKERELVAVINWSGGTTSYADSVKGRFTISRSNAKNTVYLQMSSLKPEDTAVYYCAADSIYRTSKDYNYWGQGTQVTVSS
notes: Carries myc and His tags (detected with anti-myc, pulled down on talon beads)
B6: 4A2 (VHH)
VHH: EVQLVESGGGLVQAGGSLRLSCAASGLSFSSYAMGWFRQAPGKEREFVAAIRRREGNSYYADSVKGRFTISRDSAKNTVYLQMNSLKPEDTALYSCAATAPHYSGSFAYAGGYDYWGQGTQVTVSS
notes: Tested as periplasmic extract
B7: 4B10 (VHH)
VHH: EVQLVESGGGLVQAGDSLRLSCAASGRTFSSYAMGWFRQAPGTERQFVARITGKGDSTDYADSVRGRFTISRDNAKNTVYLQMNSLKPEDTAVYYCAADAFNSLLQAGRAEYWGQGTQVTVSS
notes: Tested as periplasmic extract
B8: 4B8 (VHH)
VHH: EVQLVESGGGLVQAGGSLRLSCAASGGTYSGNAMAWFRQAPGKEREFVAGIDWSSENTRYIDSVKGRFTISRDNAKNTMYLQMNSLKPEDTAVYYCAAGTSWGALASRLEAAYSSWGQGTQVTVSS
notes: Tested as periplasmic extract
B9: 4B6 (VHH)
VHH: B8 VHH with E1K, A14V, A23V, G27R, S30G, I61T, A111N, S115A
notes: Tested as periplasmic extract
B10: 4B5 (VHH)
VHH: B8 VHH with G16D, G27R, G31R, N77S
notes: Tested as periplasmic extract
B11: 4A9 (VHH)
VHH: EVQLVESGGGLVQAGGSLRLSCEASGFTLDYSGVGWFRQAPGKERELVSCISRGGDRAGYANSVKGRFTMSRDNAKNILYLQMNSLKPEDTAVYYCAATHSGSGCYDGAIDYWGKGTLVTVSS
notes: Tested as periplasmic extract
B12: 4A6 (VHH)
VHH: EVQLVESGGGLVQPGGSLRLSCAASPFTLDYYAIGWFRQAPGKEREGVSCSTSHGKTYHADSVKGRFTISRDNAKNTVYLQMNSLKPEDTAVYYCAAGACMGGSGYEADFGSWGQGTQVTVSS
notes: Tested as periplasmic extract
B13: 4B1 (VHH)
VHH: B12 VHH with A23V, S25A, P26G, S51I, H54D, K56R, H59Y, N73M, N76K, T77M
notes: Tested as periplasmic extract
B14: 4D5 (VHH)
VHH: EVQLVESGGGLVQAGGSLRLSCAASGLSFSKYAMGWFRQAPGKQREYVAVISSSDTTYYTNSAKGRFTISRDNAENTVYLQMNSLKPEDTAVYFCAADSYVTALQTLTQISYWGQGTQVTVSS
notes: Tested as periplasmic extract
B15: 4C11 (albumin binder) (VHH)
VHH: B14 VHH with K31R, Y100F, S111N
notes: Tested as periplasmic extract
B16: 4C8 (VHH)
VHH: EVQLVESGGGLVQAGDSLRLSCAASGRTYTPYVMGWFRRAPGKEREFVGAVSWSGTNTWYTDSVKGRFTISRDNAKNTVYLQMNSLKPEDTAVYYCAAGDGVGIYRYEHQYDYWGQGTQVTVSS
notes: Tested as periplasmic extract
B17: 4C4 (VHH)
VHH: EVQLVESGGGLVQAGDSLRLSCAASGRPFMSYVMGWFRRAPGKEREFVGGINWGSGNTWYTDSVLGRFTISRDNAKNTVYLQMNSLKPEDTAVYYCATAAGVGYYRYERQYDYWGQGTQVTVSS
notes: Tested as periplasmic extract
B18: 4D10 (VHH)
VHH: EVQLVESGGGLVQAGDSLRLSCTASERPFMSYVMGWFRRAPGKDREFVGAITWSGINTWYSDSVLGRFTISRDNAKNTVYLQMNSLKPEDTAVYYCAVADGVGLYRYERQYDYWGQGTQVTVSS
notes: Tested as periplasmic extract
B19: 4C5 (VHH)
VHH: B17 VHH with M30S, S31A, G54N, G56A, R72K, T98A, A100G
notes: Tested as periplasmic extract
B20: 4D7 (VHH)
VHH: B17 VHH with M30S, G54N, T61S, Y80D, A100S
notes: Tested as periplasmic extract
B21: 4D4 (VHH)
VHH: EVQLVESGGGLVQAGDSLRLSCAASGRTFSPYVMGWFRRAPGKEREFVGGINWSGSNTWYTDSVKGRFTISRDNVKNMVYLQMNSLKPEDTAVYYCAAGSGVGMYRYERQYDYWGQGTQVTVSS
notes: Tested as periplasmic extract
B22: 4C9 (VHH)
VHH: EVQLVESGGGLVQAGDSLRLSCTASERPFSTYVMGWFRRAPGKEREFVGGITWSGINAWYTDSVLGRFTISSDNAKNTVYLQMNSLKPEDTAVYYCAAASGVGRYRYELQYDYWGQGTQVTVSS
notes: Tested as periplasmic extract
B23: 4D3 (VHH)
VHH: EVQLVKSGGGLVQPGGSLRLSCAASGFTFSHYQMSWVRQAPGKDVEWVSSISMLGGGTTYADSVKGRFTISRDNAKSTLVLQMNNLKVEDTAVYYCARGFSGNYYRADLGQGTQVTVSS
notes: Tested as periplasmic extract
B24: 4C3 (VHH)
VHH: EVQLVESGGGLVQAGGSLRLSCAASGRTFSSYAMAWFRQAPGEEREFVATISVSGGYTYYADSVKGRFTISRDNAKNTVYLQMNTLKPEDTAVYYCAAGDSSSWLEHMYDYWGQGTQVTVSS
notes: Tested as periplasmic extract
B25: 4D9 (VHH)
VHH: B1 VHH with A33D, R39Q

Each binder was assayed against T1, human pIgR overexpressed in MDCK cells (human, UniProt P01833 19-764) (assay: immunofluorescence on MDCK cells overexpressing human pIgR, 3 uM purified Nanobody at 4C, anti-myc detection).
T1 construct: whole, on cells; also called hpIgR; human polymeric immunoglobulin receptor
T1 sequence (P01833 19-764): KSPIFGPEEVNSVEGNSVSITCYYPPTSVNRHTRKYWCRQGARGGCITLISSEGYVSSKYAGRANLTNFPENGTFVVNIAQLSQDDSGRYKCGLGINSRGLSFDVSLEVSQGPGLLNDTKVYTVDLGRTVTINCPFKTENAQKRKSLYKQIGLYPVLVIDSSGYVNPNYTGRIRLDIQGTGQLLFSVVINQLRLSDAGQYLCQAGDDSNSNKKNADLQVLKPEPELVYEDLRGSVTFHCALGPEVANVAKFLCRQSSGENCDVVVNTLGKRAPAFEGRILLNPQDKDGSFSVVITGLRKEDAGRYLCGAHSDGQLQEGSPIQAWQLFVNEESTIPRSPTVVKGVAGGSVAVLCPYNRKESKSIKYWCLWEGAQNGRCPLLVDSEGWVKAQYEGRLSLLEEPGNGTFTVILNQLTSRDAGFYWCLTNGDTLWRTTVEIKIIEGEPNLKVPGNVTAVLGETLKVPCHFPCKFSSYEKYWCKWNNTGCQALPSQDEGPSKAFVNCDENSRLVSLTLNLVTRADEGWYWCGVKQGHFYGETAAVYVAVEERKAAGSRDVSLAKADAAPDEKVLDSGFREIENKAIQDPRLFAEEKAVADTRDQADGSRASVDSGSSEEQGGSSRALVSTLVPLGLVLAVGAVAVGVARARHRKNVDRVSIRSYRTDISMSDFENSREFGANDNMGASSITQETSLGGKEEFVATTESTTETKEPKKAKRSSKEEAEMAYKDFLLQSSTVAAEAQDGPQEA

B1: binds.
B2: binds.
B3: binds.

What follows are binders tested against T1, human pIgR overexpressed in MDCK cells (assay: immunoprecipitation from cell lysates with His-tagged nanobodies on talon beads, blot with a-hSC).

B4: binds.
B5: binds.

What follows are binders tested against T2, human serum albumin (human, UniProt P02768 25-609) (assay: SPR (Biacore), HSA amine-coupled on CM5, pH 5).
T2 construct: also called HSA

In order of rising koff:
1. B9  0.00119 s⁻¹
2. B17  0.00121 s⁻¹
3. B19  0.00132 s⁻¹
4. B20  0.00158 s⁻¹
5. B22  0.00171 s⁻¹
6. B8  0.0018 s⁻¹
7. B16  0.00209 s⁻¹
8. B18  0.00341 s⁻¹
9. B24  0.00375 s⁻¹
10. B10  0.00403 s⁻¹
11. B11  0.00701 s⁻¹
12. B13  0.00773 s⁻¹
13. B12  0.00999 s⁻¹
14. B23  0.0137 s⁻¹
15. B21  0.0166 s⁻¹
16. B6  0.0227 s⁻¹
17. B14  0.0263 s⁻¹
18. B15  0.0312 s⁻¹
19. B7  0.0434 s⁻¹

Each binder was assayed against T2, human serum albumin (assay: SPR (Biacore), HSA amine-coupled on CM5, pH 7).

In order of falling koff:
1. B7  0.0499 s⁻¹
2. B15  0.0263 s⁻¹
3. B14  0.0204 s⁻¹
4. B11  0.013 s⁻¹
5. B13  0.00875 s⁻¹
6. B6  0.00642 s⁻¹
7. B21  0.00602 s⁻¹
8. B23  0.00565 s⁻¹
9. B10  0.00174 s⁻¹
10. B12  0.00173 s⁻¹
11. B24  0.00112 s⁻¹
12. B8  0.000741 s⁻¹
13. B20  0.000653 s⁻¹
14. B16  0.000624 s⁻¹
15. B19  0.000541 s⁻¹
16. B18  0.000523 s⁻¹
17. B17  0.000499 s⁻¹
18. B22  0.000441 s⁻¹
19. B9  0.000368 s⁻¹

Each binder was assayed against T3, ectodomain of human pIgR (R&D Systems Cat #2717-PG) (human, UniProt P01833 19-638) (assay: competition ELISA, dilution series of purified Nanobody against 1 ug/ml IgA on immobilised pIgR ectodomain).
T3 construct: extracellular domain; Immobilised on Maxisorp plates at 5 ug/ml; also called pIgR ectodomain
T3 sequence (P01833 19-638): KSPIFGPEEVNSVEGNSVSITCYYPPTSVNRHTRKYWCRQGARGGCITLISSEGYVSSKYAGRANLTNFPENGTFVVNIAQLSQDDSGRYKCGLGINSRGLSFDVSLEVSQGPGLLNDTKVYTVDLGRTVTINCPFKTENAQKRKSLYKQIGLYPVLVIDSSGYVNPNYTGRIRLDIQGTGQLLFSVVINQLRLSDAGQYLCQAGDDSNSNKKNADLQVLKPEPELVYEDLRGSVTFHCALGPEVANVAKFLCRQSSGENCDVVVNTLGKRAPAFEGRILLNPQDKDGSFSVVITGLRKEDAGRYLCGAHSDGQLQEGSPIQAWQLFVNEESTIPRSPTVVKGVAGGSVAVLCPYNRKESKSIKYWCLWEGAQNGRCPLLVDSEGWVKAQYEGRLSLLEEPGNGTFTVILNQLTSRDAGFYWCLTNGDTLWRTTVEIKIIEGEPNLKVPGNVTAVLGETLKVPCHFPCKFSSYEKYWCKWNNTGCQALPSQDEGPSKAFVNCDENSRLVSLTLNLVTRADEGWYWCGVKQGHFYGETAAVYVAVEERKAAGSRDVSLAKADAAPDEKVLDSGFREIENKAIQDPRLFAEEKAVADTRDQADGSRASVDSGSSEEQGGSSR

B1: binds.
B25: binds.
B2: binds.
B3: binds.
B5: binds.

These binders were tested against T2, human serum albumin (assay: SPR (Biacore), ratio of the off rates at the two pH).

In order of falling “Ratio pH 7/pH 5” value:
1. B18  6.52
2. B12  5.77
3. B22  3.88
4. B6  3.54
5. B16  3.35
6. B24  3.35
7. B9  3.23
8. B21  2.76
9. B19  2.44
10. B8  2.43
11. B17  2.42
12. B20  2.42
13. B23  2.42
14. B10  2.32
15. B14  1.29
16. B15  1.19
17. B13  0.88
18. B7  0.87
19. B11  0.54
